Results reported in publication doi:10.1101/2025.06.05.657996.

B1: recombinant soluble murine EphB3-Fc (Fc fusion)
chain: LEETLMDTKWVTSELAWTSHPESGWEEVSGYDEAMNPIRTYQVCNVRESSQNNWLRTGFIWRREVQRVYVELKFTVRDCNSIPNIPGSCKETFNLFYYEADSDVASASSPFWMENPYVKVDTIAPDESFSRLDAGRVNTKVRSFGPLSKAGFYLAFQDQGACMSLISVRAFYKKCASTTAGFALFPETLTGAEPTSLVIAPGTCIANAVEVSVPLKLYCNGDGEWMVPVGACTCATGHEPAAKESQCRACPPGSYKAKQGEGPCLPCPPNSRTTSPAASICTCHNNFYRADSDSADSACTTVPSPPRGVISNVNETSLILEWSEPRDLGGRDDLLYNVICKKCRGSSGAGGPATCSRCDDNVEFVPRQLGLTERRVHISHLLAHTRYTFEVQAVNGVSGKSPLPPRYAAVNITTNQAAPSEVPTLHLHSSSGSSLTLSWAPPERPNGVILDYEMKYFEKSKGIASTVTSQKNSVQLDGLQPDARYVVQVRARTVAGYGQYSHPAEFETTSERGSGAQQLQEQLPL

Tests used:
[1] = target: MHV68 gL-gH fusion protein (gL-Linker-gH-Linker-His6) (murine gammaherpesvirus 68 (MHV68))
[2] = target: MHV68 gL-gH fusion protein (gL-Linker-gH-Linker-His6) (murine gammaherpesvirus 68 (MHV68)); experiment: ELISA; MHV68 gL-gH fusion protein coated at 2.5 μg/ml in PBS on Maxisorp plates; dimeric soluble murine Eph-Fc proteins 2 h at room temperature in 1% BSA in PBS; detected with ProteinG-HRP; four-parameter dose-response fit

| Molecule | reduction of MHV68 ORF59-GFP infection of the murine endothelial cell line SVEC4-10 after pre-incubation of virions with 100 nM homodimerized mEphA4-Fc [1] [%] | EC50 [2] [nM] | inhibition of MHV68 ORF59-GFP infection of human fibroblasts (HFF) and endothelial cells (TIME) after pre-incubation of virions with 100 nM homodimerized mEphB3-Fc [1] [%] | reduction of MHV68 ORF59-GFP infection of NIH 3T3 murine fibroblasts after pre-incubation of virions with a concentration series of soluble mEphB3-Fc, up to 100 nM homodimerized protein [1] [%] |
| --- | --- | --- | --- | --- |
| recombinant soluble murine EphA4-Fc (from UniProt Q03137 20-547) (Fc fusion) | 25 | 3.6 |  |  |
| B1 |  | 2.3 | 30 | 40 |
